# In patent US20220144930A1:
# Key:
# [1] = target: VEGF-165, VEGFC and VEGFD mixture; test: cell-based or functional assay
# [2] = target: recombinant human VEGF165 protein (human) (UniProt P15692); test: cell-based or functional assay
# Chain of EYLEA (Fc fusion) (chain): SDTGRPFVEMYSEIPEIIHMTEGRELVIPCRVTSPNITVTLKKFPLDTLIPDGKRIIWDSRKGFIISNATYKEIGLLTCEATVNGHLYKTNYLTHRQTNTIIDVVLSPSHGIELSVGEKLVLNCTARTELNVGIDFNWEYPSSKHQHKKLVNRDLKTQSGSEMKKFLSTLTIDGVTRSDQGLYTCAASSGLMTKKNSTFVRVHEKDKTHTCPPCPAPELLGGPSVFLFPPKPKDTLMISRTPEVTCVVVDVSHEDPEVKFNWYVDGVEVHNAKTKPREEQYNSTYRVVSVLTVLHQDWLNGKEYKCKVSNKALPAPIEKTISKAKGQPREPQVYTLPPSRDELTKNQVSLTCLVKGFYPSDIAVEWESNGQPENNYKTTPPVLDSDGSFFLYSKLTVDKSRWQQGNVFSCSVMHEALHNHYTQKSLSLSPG
"EC50(nM), neutralizing VEGF165, VEGFC and VEGFD mixture, HUVEC proliferation [1] [nM]","Maximum neutralization rate Emax (%), VEGF165, VEGFC and VEGFD mixture, HUVEC proliferation [1] [%]","EC50(nM), neutralizing VEGF165 at 10 ng/mL, HUVEC proliferation [2] [nM]","EC50(nM), neutralizing VEGF165 at 100 ng/mL, HUVEC proliferation [2] [nM]","EC50(nM), neutralizing VEGF165 at 1000 ng/mL, HUVEC proliferation [2] [nM]","maximum neutralization rate (%), VEGF165 at 10 ng/mL, HUVEC proliferation [2] [%]","maximum neutralization rate (%), VEGF165 at 100 ng/mL, HUVEC proliferation [2] [%]","maximum neutralization rate (%), VEGF165 at 1000 ng/mL, HUVEC proliferation [2] [%]",Substance
0.77,58.5,–,–,–,–,–,–,Avastin (bevacizumab) (antibody)
–,–,0.16,2.9,40.2,101,98.7,80.2,EYLEA (Fc fusion)
